Bounds are passed on as bounds.

These results are taken from paper PMC4986862.

The target in this assay is BD–PTLΔC1 (PETAL LOSS with the C-terminal activation region removed, fused to the GAL4 binding domain) (Arabidopsis thaliana). The assay can be described thus: two-hybrid; quantitative: α-galactosidase activity of the MEL1 reporter in liquid cultures, triplicate technical assays; BD–PTLΔC1 bait.

B1: AD–AKIN11 (full-length AKIN11 fused to the GAL4 activation domain) (natural protein)
chain: MDHSSNRFGNNGVESILPNYKLGKTLGIGSFGKVKIAEHVVTGHKVAIKILNRRKIKNMEMEEKVRREIKILRLFMHPHIIRQYEVIETTSDIYVVMEYVKSGELFDYIVEKGRLQEDEARNFFQQIISGVEYCHRNMVVHRDLKPENLLLDSRCNIKIADFGLSNVMRDGHFLKTSCGSPNYAAPEVISGKLYAGPEVDVWSCGVILYALLCGTLPFDDENIPNLFKKIKGGIYTLPSHLSSEARDLIPRMLIVDPVKRITIPEIRQHRWFQTHLPRYLAVSPPDTVEQAKKINEEIVQEVVNMGFDRNQVLESLRNRTQNDATVTYYLLLDNRFRVPSGYLESEFQETTDSGSNPMRTPEAGASPVGHWIPAHVDHYGLGARSQVPVDRKWALGLQSHAHPREIMNEVLKALQELNVCWKKIGHYNMKCRWVPGLADGQNTMVNNQLHFRDESSIIEDDCAMTSPTVIKFELQLYKAREEKYLLDIQRVNGPQFLFLDLCAAFLTELRVI
On to B1, for which the fold lower reporter (α-galactosidase) activation than AD–AKIN10 was over 10 fold.
